In patent US20260258083A1 (Amgen, published 2026):
Where no end group is shown, it is not given here. Side-chain parts run from the residue outwards. [ ]: non-standard residue; d: D form. thiosuccinimide (maleimide) = thiosuccinimide linkage from the Cys thiol to the maleimide of 4-arm 5 kDa PEG; thiosuccinimide = thiosuccinimide linkage joining the Cys side chain to 4-arm 5 kDa PEG; pGlu = O=C1CC[C@@H](C(=O)O)N1; disulfide = not defined here; MAL = maleimide

Columns and labels:
[1] = molecular target: T1, FLT3xCD3 TCE SEQ ID NO 93; assay: kinetics, Table 5
T1 construct: Single-chain scFv-scFv-scFc T cell engager; also called FLT3×CD3ε TCE; FLT3_7 A8xCD3-scFc Bispecific HLE molecule
Method: (§1) 1. Preparation of NHS-activated sepharose fast-flow beads: [0565] 2. Fast flow sepharose suspension in 100% IPA, washed twice with milliQ H20, mild centrifugation to pool beads in between wash steps. [0566] 3. […] 4. Added 80 mM PDEA to activate the resin for thiol exchange, 10 mins, r.t. [0568] 5. […] 6. Added 30 μg/mL of binding peptide, […] […] (SEQ ID NO: 300), reaction for 1 hr to functionalize resin. [0570] 7. Quench with 10 mM L-Cys for 1 hour. [0571] 8.

[2] = molecular target: T1, FLT3xCD3 TCE SEQ ID NO 93; assay: KinExA association kinetics, Table 5
Method: as §1

[3] = molecular target: T1, FLT3xCD3 TCE SEQ ID NO 93; assay: KinExA equilibrium in solution, Table 5
Method: as §1

[4] = molecular target: T1, FLT3xCD3 TCE SEQ ID NO 93; assay: Table 5, ratio to a reference peptide that the table does not name; set-up: reference not given here
[5] = molecular target: T1, FLT3xCD3 TCE SEQ ID NO 93; assay: KinExA equilibrium in solution, KD relative to peptide concentration, TCE 125 pM
[6] = molecular target: T1, FLT3xCD3 TCE SEQ ID NO 93; assay: SPR solution competition, peptide titrated into fixed TCE, free TCE read on peptide capture surface
Excerpt: (§2) For the binding assessment, Individual binding isotherms were constructed by titrating the respective peptide of interest into a fixed concentration of TCE-containing solution in PBST. At least 4 hrs equilibration time were allotted (r.t.) prior to analysis by SPR. For the analysis, a calibration curve was first constructed of the TCE analyte being assessed. […] The ‘free’ TCE concentration measured was plotted as a function of log peptide concentration and fit using non-linear regression analysis to a 4 parameter logistic function to derive an IC50.

[7] = molecular target: CDH3-CD3-MSLN-CD3 TCE (SEQ ID NO 255); assay: SPR, immobilised peptide, bivalent analyte model, fast component
CDH3-CD3-MSLN-CD3 TCE (SEQ ID NO 255), sequence (chain, as listed by the source): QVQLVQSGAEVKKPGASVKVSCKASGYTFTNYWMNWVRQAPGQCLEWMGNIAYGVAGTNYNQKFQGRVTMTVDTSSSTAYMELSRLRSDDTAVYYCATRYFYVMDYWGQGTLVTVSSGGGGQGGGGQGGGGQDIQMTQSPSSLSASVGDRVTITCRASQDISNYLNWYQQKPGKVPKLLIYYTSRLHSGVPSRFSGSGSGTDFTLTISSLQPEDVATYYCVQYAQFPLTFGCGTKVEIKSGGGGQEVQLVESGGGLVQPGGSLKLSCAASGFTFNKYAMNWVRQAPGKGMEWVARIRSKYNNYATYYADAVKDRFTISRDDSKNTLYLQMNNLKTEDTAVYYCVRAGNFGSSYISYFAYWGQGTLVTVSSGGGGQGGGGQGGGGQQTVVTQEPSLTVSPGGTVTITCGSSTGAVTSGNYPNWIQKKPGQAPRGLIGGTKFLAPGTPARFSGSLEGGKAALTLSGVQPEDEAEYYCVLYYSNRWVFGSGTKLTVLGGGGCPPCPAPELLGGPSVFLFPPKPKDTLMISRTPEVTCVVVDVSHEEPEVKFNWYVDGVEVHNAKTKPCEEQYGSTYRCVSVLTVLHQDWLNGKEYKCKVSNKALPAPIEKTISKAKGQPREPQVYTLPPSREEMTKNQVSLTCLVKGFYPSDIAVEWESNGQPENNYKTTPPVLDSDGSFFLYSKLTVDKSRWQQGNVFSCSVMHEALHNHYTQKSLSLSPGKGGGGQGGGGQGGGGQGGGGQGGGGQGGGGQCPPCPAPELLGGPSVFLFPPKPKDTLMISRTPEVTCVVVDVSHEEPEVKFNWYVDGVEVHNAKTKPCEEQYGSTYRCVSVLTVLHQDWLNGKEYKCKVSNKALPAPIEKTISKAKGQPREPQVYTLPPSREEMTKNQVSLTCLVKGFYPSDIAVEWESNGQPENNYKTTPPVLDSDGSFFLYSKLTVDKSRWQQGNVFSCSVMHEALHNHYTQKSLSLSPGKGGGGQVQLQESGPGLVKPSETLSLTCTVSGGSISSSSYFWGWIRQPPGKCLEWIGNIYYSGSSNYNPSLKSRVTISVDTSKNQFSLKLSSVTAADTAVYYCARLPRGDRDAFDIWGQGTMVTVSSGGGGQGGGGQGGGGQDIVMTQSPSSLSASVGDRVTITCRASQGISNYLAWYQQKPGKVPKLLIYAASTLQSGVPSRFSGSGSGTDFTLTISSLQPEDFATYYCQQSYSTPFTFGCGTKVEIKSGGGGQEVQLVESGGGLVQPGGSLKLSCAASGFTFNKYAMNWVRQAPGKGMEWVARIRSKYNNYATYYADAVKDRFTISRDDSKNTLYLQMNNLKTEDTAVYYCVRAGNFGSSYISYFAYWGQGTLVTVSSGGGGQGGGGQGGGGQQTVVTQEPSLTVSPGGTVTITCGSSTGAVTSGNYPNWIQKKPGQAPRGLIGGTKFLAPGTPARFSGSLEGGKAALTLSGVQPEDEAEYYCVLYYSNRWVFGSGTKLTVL

[8] = molecular target: T1, FLT3xCD3 TCE SEQ ID NO 93; assay: SPR, peptide immobilised on CM5 (PDEA), TCE as analyte, kinetic 1:1 fit
[9] = molecular target: T2, Steap 1xCD3 TCE SEQ ID NO 373 + 374 + 375; assay: as above
T2 construct: also called STEAP1×CD3e heterodimeric TCE; Ab-A1 Xmab2+1

[10] = molecular target: T3, DLL3xCD3 TCE SEQ ID NO 104; assay: as above
T3 construct: Single-chain T cell engager; also called DLL3×CD3ε TCE

[11] = molecular target: CDH3-CD3-MSLN-CD3 TCE (SEQ ID NO 255); assay: SPR, peptide immobilised on CM5 (PDEA), TCE as analyte, steady state affinity
[12] = molecular target: T2, Steap 1xCD3 TCE SEQ ID NO 373 + 374 + …; assay: SPR solution competition, peptide titrated into fixed TCE, free TCE read on peptide capture surface
Excerpt: as §2

[13] = molecular target: T3, DLL3xCD3 TCE SEQ ID NO 104; assay: KinExA equilibrium in solution, KD relative to peptide concentration, TCE 250 pM
[14] = molecular target: T1, FLT3xCD3 TCE SEQ ID NO 93; assay: as above
[15] = molecular target: CDH3-CD3-MSLN-CD3 TCE (SEQ ID NO 255); assay: as above
[16] = molecular target: T2, Steap 1xCD3 TCE SEQ ID NO 373 + 374 + …; assay: KinExA equilibrium in solution, KD relative to peptide concentration, TCE 333 pM
Method: 1. […] 2. […] 3. […] 4. Added 80 mM PDEA to activate the resin for thiol exchange, 10 mins, r.t. […] 5. […] 6. […] 7. […] 8.

[17] = molecular target: T1, FLT3xCD3 TCE SEQ ID NO 93; assay: KinExA equilibrium in solution, Table 5; single reference peptide QDGNEEMG (original CD3ε epitope)
Method: as §1

B1: QDGNEEMG-QDGNEEMG (peptide)
peptide: QDGNEEMGQDGNEEMG
[1]
  koff: 0.00586 s⁻¹
[2]
  kon: 533000 M⁻¹ s⁻¹
[3]
  Kd: 11 nM
[4]
  fold-Kd: 3.25 fold
  fold-koff: 0.24 fold
  fold-kon: 0.77 fold

B2: 72103-1 (peptide)
peptide: [pGlu]DGNEELKGC([thiosuccinimide-4‑arm PEG 5 kDa])-OH
[5]
  Kd: 0.0777 nM

B3: (pGlu-DGNEELKGC)4 -MAL PEG(10 kDa) (peptide)
peptide: [pGlu]DGNEELKGC([MAL-PEG 10 kDa])
modifications: also: four peptides per PEG
[3]
  Kd: 0.142 nM

B4: pGlu-DGNEEMGKGMEENGDQC (peptide)
peptide: [pGlu]DGNEEMGKGMEENGDQC
notes: Position 1 is written E for pE
[3]
  Kd: 0.176 nM
[4]
  fold-Kd: 203 fold
[6]
  IC50: 2.4 nM

B5: (QDGNEEMGKGMEENGDQC)4 -PEG(20 kDa) (peptide)
peptide: QDGNEEMGKGMEENGDQC(4‑arm PEG 20 kDa)
modifications: also: four peptides on one 4-arm PEG
notes: Peptide-PEG conjugate with four peptides on one PEG; also called CD3ε PepPOL, v1 (20 kDa); 4-arm 20 kDa PepPOL conjugate
[1]
  koff: 0.0047 s⁻¹
[2]
  kon: 199000 M⁻¹ s⁻¹
[3]
  Kd: 22 nM
[4]
  fold-kon: 1.14 fold

B6: pGlu-DGNEELKGC (peptide)
peptide: [pGlu]DGNEELKGC
notes: also called ID 14974
[3]
  Kd: 0.142 nM
[7]
  koff: 0.0212 s⁻¹
  kon: 2.42e+06 M⁻¹ s⁻¹
[4]
  fold-Kd: 252 fold
[8]
  Kd: 1.28 nM
  koff: 0.0024 s⁻¹
  kon: 1.88e+06 M⁻¹ s⁻¹
[9]
  Kd: 2.57 nM
  koff: 0.00514 s⁻¹
  kon: 2e+06 M⁻¹ s⁻¹
[10]
  Kd: 1.3 nM
  koff: 0.00279 s⁻¹
  kon: 2.14e+06 M⁻¹ s⁻¹
[11]
  Kd: 13.3 nM
[6]
  IC50: 2.7 nM
[12]
  IC50: 13.4 nM

B7: 79676-1 (peptide)
peptide: [pGlu]DGEEELKGC([thiosuccinimide-4‑arm PEG 20 kDa])-NH2
modifications: also: 4-arm PEG conjugate, number of peptide copies not given here
notes: TCE masking molecule
[13]
  Kd: 12.8 nM

B8: pGlu-DGSEELKGC (peptide)
peptide: [pGlu]DGSEELKGC
notes: Position 1 is written E for pGlu
[6]
  IC50: 8.2 nM
[12]
  IC50: 16.7 nM

B9: 73136-2 (peptide)
peptide: [pGlu]DGNEELKGK([acetamide‑thioether-mPEG 20 kDa])-OH
modifications: also: Lys 10 side chain linked via thioether (acetamide) to linear 20 kDa mPEG
notes: TCE masking molecule
[14]
  Kd: 0.173 nM

B10: 79677-1 (peptide)
peptide: [pGlu]DGEEELKGC([thiosuccinimide (maleimide)-4‑arm PEG 5 kDa])-NH2
modifications: also: 4-arm PEG conjugate, number of peptide copies not given here
notes: TCE masking molecule
[13]
  Kd: 4.69 nM

B11: pGlu-DGEEELKGC (peptide)
peptide: [pGlu]DGEEELKGC
[7]
  koff: 0.236 s⁻¹
  kon: 1.29e+06 M⁻¹ s⁻¹
[8]
  Kd: 7.3 nM
  koff: 0.0295 s⁻¹
  kon: 4.04e+06 M⁻¹ s⁻¹
[9]
  Kd: 27.4 nM
  koff: 0.0834 s⁻¹
  kon: 3.04e+06 M⁻¹ s⁻¹
[10]
  Kd: 20.5 nM
  koff: 0.0542 s⁻¹
  kon: 2.64e+06 M⁻¹ s⁻¹
[11]
  Kd: 72.5 nM
[6]
  IC50: 14.7 nM
[12]
  IC50: 28.6 nM

B12: pGlu-DGIEELKGC (peptide)
peptide: [pGlu]DGIEELKGC
notes: as for B8
[6]
  IC50: 3.6 nM
[12]
  IC50: 11.6 nM

B13: pGlu-DGVEELKGC (peptide)
peptide: [pGlu]DGVEELKGC
notes: as for B8
[6]
  IC50: 9 nM
[12]
  IC50: 26.4 nM

B14: pGlu-DGTEELKGC (peptide)
peptide: [pGlu]DGTEELKGC
notes: as for B8
[8]
  Kd: 8.88 nM
  koff: 0.0285 s⁻¹
  kon: 3.21e+06 M⁻¹ s⁻¹
[9]
  Kd: 35.2 nM
  koff: 0.0734 s⁻¹
  kon: 2.09e+06 M⁻¹ s⁻¹
[10]
  Kd: 14.8 nM
  koff: 0.0713 s⁻¹
  kon: 4.81e+06 M⁻¹ s⁻¹
[6]
  IC50: 39.7 nM
[12]
  IC50: 59.9 nM

B15: 79675-1 (peptide)
peptide: [pGlu]DGNEELKGC([thiosuccinimide-4‑arm PEG 5 kDa])-NH2
modifications: also: 4-arm PEG conjugate, number of peptide copies not given here
[13]
  Kd: 0.0623 nM

B16: 79674-1 (peptide)
peptide: [pGlu]DGNEELKGC([thiosuccinimide-4‑arm PEG 20 kDa])-NH2
modifications: also: 4-arm PEG conjugate, number of peptide copies not given here
[13]
  Kd: 0.0372 nM
[15]
  Kd: 0.0638 nM

B17: pGlu-DGNEELPKPGC (peptide)
peptide: [pGlu]DGNEELPKPGC
notes: as for B8
[6]
  IC50: 2.7 nM

B18: (pGlu-DGNEELKGC)4 -MAL PEG(5 kDa) (peptide)
peptide: [pGlu]DGNEELKGC([MAL-PEG 5 kDa])
modifications: also: four peptides per PEG
[3]
  Kd: 0.142 nM

B19: pEDGNEELKGC-NH2 (peptide)
peptide: [pGlu]DGNEELKGC-NH2
SMILES: CC(C)C[C@H](NC(=O)[C@H](CCC(=O)O)NC(=O)[C@H](CCC(=O)O)NC(=O)[C@H](CC(N)=O)NC(=O)CNC(=O)[C@H](CC(=O)O)NC(=O)[C@@H]1CCC(=O)N1)C(=O)N[C@@H](CCCCN)C(=O)NCC(=O)N[C@@H](CS)C(N)=O
notes: Unconjugated peptide (Conjugate column: N/A)
[16]
  Kd: 1.59 nM

B20: QDGNEEMG-K-QDGNEEMG (peptide)
peptide: QDGNEEMGKQDGNEEMG
[1]
  koff: 0.00497 s⁻¹
[2]
  kon: 448000 M⁻¹ s⁻¹
[3]
  Kd: 8.05 nM
[4]
  fold-Kd: 2.77 fold
  fold-koff: 0.28 fold
  fold-kon: 0.56 fold

B21: QDGNEEMG-GMEENGDQ (peptide)
peptide: QDGNEEMGGMEENGDQ
notes: how the reversed half is joined is not explained
[1]
  koff: 0.00471 s⁻¹
[2]
  kon: 476000 M⁻¹ s⁻¹
[3]
  Kd: 9.88 nM
[4]
  fold-Kd: 3.62 fold
  fold-koff: 0.19 fold
  fold-kon: 0.69 fold

B22: QDGNEEMG (peptide)
peptide: QDGNEEMG
[1]
  koff: 0.0248 s⁻¹
[2]
  kon: 692000 M⁻¹ s⁻¹
[17]
  Kd: 35.8 nM
[6]
  IC50: 133 nM

B23: (pGlu-DGNEEMGKGMEENGDQC)4 -PEG(20 kDa) (peptide)
peptide: [pGlu]DGNEEMGKGMEENGDQC([disulfide-4‑arm PEG 20 kDa])
modifications: reading uncertain; also: four peptides on one 4-arm PEG, printed as pGlu-DGNEEMGKGMEENGDQC
notes: also called CD3ε PepPOL, v2; Pep-PEG v2
[1]
  koff: 0.00195 s⁻¹
[2]
  kon: 1.12e+07 M⁻¹ s⁻¹
[3]
  Kd: 0.176 nM
[4]
  fold-Kd: 203 fold
  fold-koff: 0.01 fold
  fold-kon: 16.2 fold

B24: pGlu-DGNEELKPGC (peptide)
peptide: [pGlu]DGNEELKPGC
notes: as for B8
[6]
  IC50: 5.2 nM

B25: QDGNEEMG-K (peptide)
peptide: QDGNEEMGK
[1]
  koff: 0.0179 s⁻¹
[2]
  kon: 806000 M⁻¹ s⁻¹
[3]
  Kd: 22.3 nM
